Results published in the nanobody polyreactivity screen of Harvey et al. (2022).

Assay: yeast display, Sf9 membrane polyspecificity reagent, FACS + sequencing; frameworks hold sequencing errors
Method in brief: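 Polyreactivity labels are assigned by the sorting gate from which each nanobody was recovered. The gates were low and high (top ~1%), set on anti-HA fluorescence for expression and streptavidin fluorescence for reagent binding. Before sorting, galactose-induced (36–48 hours) yeast display cells were stained for 1 hour at 4 °C with 10% biotinylated, detergent-solubilized Sf9 membrane reagent.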

| Sequence | polyreactivity (PSR sort gate) |
| --- | --- |
| QVQLVESGGGVVQAGGSLRLSCAASGSIFPINAMGWYRQAPGKERELVAAITSGGSTNYADSVKGRFTISRDNAKNTVYLQMNSLKPEDTAVYYCAADWRYWRWAFDYWGQGTQVTVSS | high polyreactivity |
| QVQLVESGGGVVQAGGSLRLSCAASGSIFYSYAMGWYRQAPGKERELVAAISSSGTSTYYADSVKGRFTISRDNAKNTVYLQMNSLKPEDTAVYYCAARFYGTSYYRYNYWGQGTQVTVSS | high polyreactivity |
| QVQLVESGGGVVQAGGSLRLSCAASGSIFYYYAMGWYRQAPGKERELVASITHTGGSTNYADSVKGRFTISRDNAKNTVYLQKNSLKPEDTAVYYCAAEYWNDNYSDPLYDYWGQGTQVTVSS | low polyreactivity |
| QVQLVESGGGVVQAGGSLRLSCAASGSTFARKAMGWYRPAPGKERELVAAITYSGGRTYYADSVKGRVTISRDNAKNTVYLQMNRLKPVDTAVYYCAVKSFSGHGDYWGQGTQVTLSS | low polyreactivity |
| QVQLVESGGGVVQAGGSLRLSCAASGTFYLYAMGWYRQAPGKERELVAAISGSGSTNYADSVKGRFTISRDNAKNTVYLQMNSLKPEDTAVYYCAAYQRYDSVTGARYEYDYWGQGTQVTVSS | low polyreactivity |
| QVQLVESGGGVVQAGGSLRLSCAAYGRTFYVYTLGWYRPAPGKERELVAANTSGGSTNYADCVMGRFTISRDYAKNTVYLQMNSLKPEDTAVYYCAAKRYNRLRSYRYSDREDYWGQGTQVTVSS | high polyreactivity |
| QVQLVESGGGVVQAGGSLRLSCAGSGFIFSYYTMGWYRQAPGKERELVAAITSGGSTNYADSVKGRFTISRDNAKNTVYLQMNSLKPEDTAVYYCNALLWAWTLWGSGYDYWGQGTQVTVSS | low polyreactivity |
| QVQLVESGGGVVQAGGSLRLSCSASGSTFLGYVMGWYRQAPGKEREFVAVISRSGGDTYYADSVKGRFTISRDNAKNTVYLQMNSLKPEDTAVFYCNTRVRASSVDYDEGDYWGQGTQVTVSS | low polyreactivity |
| QVQLVESGGGVVQAGRSLRLSCAASGRLFYEYAMGWYRQAPGKEREFVAAISYSGSRTYYADSVKGRFTISRDNAKYTVYLQLNCLIPEDTAVYYCAAVVAFGTGTFYYWGQGRQVTVSS | high polyreactivity |
| QVQLVESGGGVVQSRGSLRLTCAASGRIFLQYAMGWYRQAPWKERELVAAIEWSGGRTYYADSVKGRFTISRDNAKNTVYLQMNSLTPEDTAVYYCAARRISGSAVRGSRGYWGQGTQVTVSS | high polyreactivity |
| QVQLVESGGLLVQAGGILRLSCAASGITFQYYAMGWSRQAPGKERELVAANTSSGVSTYYADSVKGRFTISRDNAKNTVYFQMNSLKPEDTAVYYCNTVVRGWSSSADDYWVQGTQVTVSS | low polyreactivity |
| QVQLVESGGLLVQAGGSIRITCAASGSTLWFNAMGWYRQAPGKERELVAAINWSGGSTYYADSVKGRFSISRDNAKITVYVQMTSLKPEDTAVYYCAAFYQYVHYVWYDYWGQGSQVTVSS | low polyreactivity |
| QVQLVESGGLLVQAGGSLRLSCAASGFIFNQYAMGWDRQAPAKVREFVAGISWSGGATYYADSVKGRFTISRDNAKNTVYLQMNSLKPEETAVYYCAADRTYSFYYTQGYEYWGQGTHVTVSS | low polyreactivity |
| QVQLVESGGPLVQAGGSLRLSFAACGFTLWSYSLGWYRQAPGKESELVAAINSRGGRTSYADSVKGRFTISRDNAKNTVYLQINRLKPEDTAVYYCATDPISRARLYGQRDYWGQGTQVTVSS | high polyreactivity |
| QVQLVESGGRIFQAGGSLRLSCAASGLIFPYYVMGWYRQAPGKERELVADITWSGGRTYYADSVKGRFTISRDNAKNTVYLQMNSLKPEDTSVYYCKAETGGVYDNYYYVGEYYFWGQGTQVTVSS | low polyreactivity |
| QVQLVESGGRIVQAGGSLRLSCDASGSTIFGNGMGWYRQAPGKERELVAAISGGGSTHYADSVKGRFTISRDNAKNTVYLQMNSVKPEDTAVYYCSPSRDTDGRGPIQRDFWGQGTQVTVSS | low polyreactivity |

| Sequence | polyreactivity (PSR sort gate) |
| --- | --- |
| QVQLVESGGRLDQAGGSLRLSCAASGRIFSRNTMGWYRQAPGKERELVATITSAGSTSFADSVKGRFTISRDNAKNTVYLQMNSLKPENTAVYYCAKRGAYATGRRYDPYGYWGQGTQVTVSS | high polyreactivity |
| QVQLVESGGRLDQARGSLRLSCAASGYNFQPYAMGWYRLAPGKERDLVAAISWRGGSTYYADSVKGRFTISRDNAKNTVYLQMTSLKPEDTAVYYCAKDYYYGLEHYGYWGQGTQVTVSS | low polyreactivity |
| QVQLVESGGRLLQAGGSLRLSCAASGRIIGLYAMGWYRPAPGKEWEFVAAINWDGGSTFYADSVKGRFTISRDNAKNSVYLQMNSLQPEDTAVYYCAADVYSYVSNCTYVSVFTYDYWGHGTQVTVSS | low polyreactivity |
| QVQLVESGGRLVPAGGSLRLTCAASGIISVYYVMGWYRPAPGKERELVAAINRSGGNTYYADSVKGRFTISRDNAKNTVYLQMNSLKPEDTAVYYCKASLYFYRYGHDDESDYWGQGTQVTVSS | high polyreactivity |
| QVQLVESGGRLVQAGASLRLSCAASGRILYWNTMGWYRQAPGKERELVASITQNVGSTYYADSVKGRFTISRDNAKNTVYLQMISMIPEDTAVYYCAAKRLSWHRYGYWGQGTQVTVSS | low polyreactivity |
| QVQLVESGGRLVQAGASLRLSCAASGSTFSTNAMGWYRQAPGKEREFVPAISRSGGRTYYADSVKGRFTISRDNAKNTVYLQMNSLKRDDTAVYYCAAGITHEGRDGDYWGQGTQVTVSS | high polyreactivity |
| QVQLVESGGRLVQAGCSLRLSCAASGFTFYQNAMGWYRQAPGKVRELVAAISVSGDSTYYADSVKGRLTISRDNAKNTVYLQMNSLKPEDTAVYYCTEYFYYLSLYYYYWFNYDYWGHGTQVTVSS | low polyreactivity |
| QVQLVESGGRLVQAGGRLPLSCAASGSIFTGNAMGWYRQAPGKERELVAAITQRGGRTYYADSVKGRFTISRDNSKNTVYLQMNSLKPEDTAVYYCAADPPGYVYGKRYYWGQGTQVTVSS | high polyreactivity |
| QVQLVESGGRLVQAGGRLRLSCAASGRTILLYAMGRYRQAPGKESELVPAIRSSTVSTYYADSVKGRFTISRDNAKNTVYLQMYSLKPEDTAVYYCAASRPKYGPSGVRYNYWGQGTQVTVSS | high polyreactivity |
| QVQLVESGGRLVQAGGRLRLSCAASGSIFLYNARGWYRQAPGKERELVAAINYSGVSTYYADSVKGRFTISRDNAKNTVYLQMNSLKPEDTAVYYCARRWNAFGSKGGYWGQGTQVTVSS | high polyreactivity |
| QVQLVESGGRLVQAGGRLRLSCAASGSISASYAMGWYRQAPGKERELVAAITSGGSTYYADSVKGRFTISRDNAKYTVYLQMNSLKPEDTAVYYCAKRPKRTYYPHIGYDYWGLGTQVTVSS | low polyreactivity |
| QVQLVESGGRLVQAGGSIRLRCAASGNTFVYNDMGWYRQAPGKERELVADIRYSGSTYYADSVKGRFTISRDNATNTVYLEMNSLKPEDTAVYYCAKAYYVLSWMGYWGQGTQVTVSS | low polyreactivity |
| QVQLVESGGRLVQAGGSIRLSCAASGRIFGAYAMGWYRQAPGKERELVAAITQSGGSTFYADSVKGRFTISRDNAKNTVYLQMNSLKPEVTAVYYWGQGTQVTVSS | low polyreactivity |
| QVQLVESGGRLVQAGGSLLLSSAASGRTFGIYAMGWSRQSPGKERELCAAITWSGDSTYYADSVKGRFTISRDNAKNTVYIQMNSLKPEDTAVYYCAADYVGLTSVRYDYWGQGTQVTVSS | low polyreactivity |
| QVQLVESGGRLVQAGGSLRFSCAASGGIFESYAMGGYRQAPGQERELVASISSGGSTYYADSVKGRFTISRDNAKNTVYLQMNSLKPEDTAVYYCNTDNGSHGMDYWGQGTQVTVSS | low polyreactivity |
